25 molecules from patent publication US20150344570A1 (published 2015) can be followed below.

The chains are these.
T1: FcγRIIa R extracellular domain with C-terminal His tag (human, UniProt P12318 34-217)
T1 construct: extracellular domain; also called FcgRIIa R; 2aR; not shown: His tag at the C terminus
T1 sequence (looked up): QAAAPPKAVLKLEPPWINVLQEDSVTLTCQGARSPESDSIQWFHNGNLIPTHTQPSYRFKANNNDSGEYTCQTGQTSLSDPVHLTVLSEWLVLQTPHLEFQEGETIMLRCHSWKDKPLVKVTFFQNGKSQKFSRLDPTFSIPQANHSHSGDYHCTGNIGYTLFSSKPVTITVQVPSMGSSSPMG

B1: GpH7-A5/GpH7-B3 variant S337_02A/GpL16-k0 (antibody, human IgG1, kappa)
heavy 1: not shown
heavy 2: not shown
light: DIVMTQSPLSLPVTPGEPASISCQASESLVHSNRNTYLHWYLQKPGQSPQLLIYKVSNRFSGVPDRFSGSGSGTDFTLKISRVEAEDVGVYYCSQNTHVPPTFGQGTKVEIERTVAAPSVFIFPPSDEQLKSGTASVVCLLNNFYPREAKVQWKVDNALQSGNSQESVTEQDSKDSTYSLSSTLTLSKADYEKHKVYACEVTHQGLSSPVTKSFNRGEC
notes: heterodimerized: alteration in one H chain only; also called He Ab S337_02A
B2: GpH7-A5/GpH7-B3 variant K326_08L/GpL16-k0 (antibody, human IgG1, kappa)
heavy 1: not shown
heavy 2: not shown
light: B1 light
notes: heterodimerized: alteration in one H chain only; also called He Ab K326_08L
B3: GpH7-A5/GpH7-B3 variant K326_15Y/GpL16-k0 (antibody, human IgG1, kappa)
heavy 1: not shown
heavy 2: not shown
light: B1 light
notes: heterodimerized: alteration in one H chain only; also called He Ab K326_15Y
B4: GpH7-A5/GpH7-B3 variant A327_09D/GpL16-k0 (antibody, human IgG1, kappa)
heavy 1: not shown
heavy 2: not shown
light: B1 light
notes: heterodimerized: alteration in one H chain only; also called He Ab A327_09D
B5: GpH7-A5/GpH7-B3 variant H268_01G/GpL16-k0 (antibody, human IgG1, kappa)
heavy 1: not shown
heavy 2: not shown
light: B1 light
notes: heterodimerized: alteration in one H chain only; also called He Ab H268_01G
B6: GpH7-A5/GpH7-B3 variant K334_19Q/GpL16-k0 (antibody, human IgG1, kappa)
heavy 1: not shown
heavy 2: not shown
light: B1 light
notes: heterodimerized: alteration in one H chain only; also called He Ab K334_19Q
B7: GpH7-A5/GpH7-B3 variant K326_03V/GpL16-k0 (antibody, human IgG1, kappa)
heavy 1: not shown
heavy 2: not shown
light: B1 light
notes: heterodimerized: alteration in one H chain only; also called He Ab K326_03V
B8: GpH7-A5/GpH7-B3 variant G237_04F/GpL16-k0 (antibody, human IgG1, kappa)
heavy 1: not shown
heavy 2: not shown
light: B1 light
notes: heterodimerized: alteration in one H chain only; also called He Ab G237_04F
B9: GpH7-A5/GpH7-B3 variant L235_20W/GpL16-k0 (antibody, human IgG1, kappa)
heavy 1: not shown
heavy 2: not shown
light: B1 light
notes: heterodimerized: alteration in one H chain only; also called He Ab L235_20W
B10: GpH7-A5/GpH7-B3 variant I336_08L/GpL16-k0 (antibody, human IgG1, kappa)
heavy 1: not shown
heavy 2: not shown
light: B1 light
notes: heterodimerized: alteration in one H chain only; also called He Ab I336_08L
B11: GpH7-A5/GpH7-B3 variant K334_10E/GpL16-k0 (antibody, human IgG1, kappa)
heavy 1: not shown
heavy 2: not shown
light: B1 light
notes: heterodimerized: alteration in one H chain only; also called He Ab K334_10E
B12: GpH7-A5/GpH7-B3 variant K326_20W/GpL16-k0 (antibody, human IgG1, kappa)
heavy 1: not shown
heavy 2: not shown
light: B1 light
notes: heterodimerized: alteration in one H chain only; also called He Ab K326_20W
B13: GpH7-A5/GpH7-B3 variant K334_04F/GpL16-k0 (antibody, human IgG1, kappa)
heavy 1: not shown
heavy 2: not shown
light: B1 light
notes: heterodimerized: alteration in one H chain only; also called He Ab K334_04F
B14: GpH7-A5/GpH7-B3 variant L328_13S/GpL16-k0 (antibody, human IgG1, kappa)
heavy 1: not shown
heavy 2: not shown
light: B1 light
notes: heterodimerized: alteration in one H chain only; also called He Ab L328_13S
B15: GpH7-A5/GpH7-B3 variant K326_07I/GpL16-k0 (antibody, human IgG1, kappa)
heavy 1: not shown
heavy 2: not shown
light: B1 light
notes: heterodimerized: alteration in one H chain only; also called He Ab K326_07I
B16: GpH7-A5/GpH7-B3 variant K334_08L/GpL16-k0 (antibody, human IgG1, kappa)
heavy 1: not shown
heavy 2: not shown
light: B1 light
notes: heterodimerized: alteration in one H chain only; also called He Ab K334_08L
B17: GpH7-A5/GpH7-B3 variant G237_20W/GpL16-k0 (antibody, human IgG1, kappa)
heavy 1: not shown
heavy 2: not shown
light: B1 light
notes: heterodimerized: alteration in one H chain only; also called He Ab G237_20W
B18: GpH7-A5/GpH7-B3 variant I332_06M/GpL16-k0 (antibody, human IgG1, kappa)
heavy 1: not shown
heavy 2: not shown
light: B1 light
notes: heterodimerized: alteration in one H chain only; also called He Ab I332_06M
B19: GpH7-A5/GpH7-B3 variant K334_02A/GpL16-k0 (antibody, human IgG1, kappa)
heavy 1: not shown
heavy 2: not shown
light: B1 light
notes: heterodimerized: alteration in one H chain only; also called He Ab K334_02A
B20: GpH7-A5/GpH7-B3 variant K334_05P/GpL16-k0 (antibody, human IgG1, kappa)
heavy 1: not shown
heavy 2: not shown
light: B1 light
notes: heterodimerized: alteration in one H chain only; also called He Ab K334_05P
B21: GpH7-A5/GpH7-B3 variant K326_04F/GpL16-k0 (antibody, human IgG1, kappa)
heavy 1: not shown
heavy 2: not shown
light: B1 light
notes: heterodimerized: alteration in one H chain only; also called He Ab K326_04F
B22: GpH7-A5/GpH7-B3 variant K334_13S/GpL16-k0 (antibody, human IgG1, kappa)
heavy 1: not shown
heavy 2: not shown
light: B1 light
notes: heterodimerized: alteration in one H chain only; also called He Ab K334_13S
B23: GpH7-A5/GpH7-B3 variant A327_10E/GpL16-k0 (antibody, human IgG1, kappa)
heavy 1: not shown
heavy 2: not shown
light: B1 light
notes: heterodimerized: alteration in one H chain only; also called He Ab A327_10E
B24: GpH7-A5/GpH7-B3 variant A330_12R/GpL16-k0 (antibody, human IgG1, kappa)
heavy 1: not shown
heavy 2: not shown
light: B1 light
notes: heterodimerized: alteration in one H chain only; also called He Ab A330_12R
B25: GpH7-A5/GpH7-B3 variant A330_01G/GpL16-k0 (antibody, human IgG1, kappa)
heavy 1: not shown
heavy 2: not shown
light: B1 light
notes: heterodimerized: alteration in one H chain only; also called He Ab A330_01G

This assay has as its target T1, FcγRIIa R extracellular domain with …. The assay can be described thus: SPR (Biacore), relative FcγRIIa R binding, GpH7-A5/GpH7-B3/GpL16-k0 = 100. Background: SPR reads the build-up and loss of mass on a sensor chip optically.
For the molecule B1, the He/Con_2aR is 105 % of control.
The same measure for B2: 137 % of control.
The same measure for B3: 136 % of control; for B4: 124 % of control; for B5: 124 % of control.
The same measure for B6: 109 % of control.
B7: the He/Con_2aR is 141 % of control.
Regarding B8, the He/Con_2aR was 126 % of control.
Then B9, with 131 % of control.
On to B10, for which the He/Con_2aR is 110 % of control.
Turning to B11, the He/Con_2aR is 106 % of control.
Then B12, with 131 % of control; and B13, with 110 % of control.
Regarding B14, the He/Con_2aR was 117 % of control.
B15: the He/Con_2aR is 147 % of control.
The same measure for B16: 106 % of control; for B17: 138 % of control; for B18: 109 % of control.
For the molecule B19, the He/Con_2aR was 105 % of control.
B20: the He/Con_2aR is 103 % of control.
Then B21, with 135 % of control; and B22, with 109 % of control.
With B23, the He/Con_2aR was 110 % of control.
Take B24: the He/Con_2aR was 104 % of control.
Then B25, with 109 % of control.
